Source: PMC12213002

Experiments:
[1] = endogenous DDX3X western blot, HEK293T
[2] = total DDX3X western blot, siRNA knock-down/rescue; conditions: glycan lost; control: siDDX3X + SIR FLAG-DDX3X WT
[3] = FLAG western blot, transfected HEK293T, normalised to β-tubulin; conditions: glycan lost; control: FLAG-DDX3X WT
[4] = MG132 rescue of FLAG-DDX3X levels, P2A-GFP normalised; conditions: glycan lost; control: FLAG-DDX3X WT
[5] = cycloheximide chase, FLAG western blot, HEK293T; conditions: glycan lost; control: FLAG-DDX3X WT

B1: DDX3X: OGT siRNA (protein)
parent chain: MSHVAVENALGLDQQFAGLDLNSSDNQSGGSTASKGRYIPPHLRNREATKGFYDKDSSGWSSSKDKDAYSSFGSRSDSRGKSSFFSDRGSGSRGRFDDRGRSDYDGIGSRGDRSGFGKFERGGNSRWCDKSDEDDWSKPLPPSERLEQELFSGGNTGINFEKYDDIPVEATGNNCPPHIESFSDVEMGEIIMGNIELTRYTRPTPVQKHAIPIIKEKRDLMACAQTGSGKTAAFLLPILSQIYSDGPGEALRAMKENGRYGRRKQYPISLVLAPTRELAVQIYEEARKFSYRSRVRPCVVYGGADIGQQIRDLERGCHLLVATPGRLVDMMERGKIGLDFCKYLVLDEADRMLDMGFEPQIRRIVEQDTMPPKGVRHTMMFSATFPKEIQMLARDFLDEYIFLAVGRVGSTSENITQKVVWVEESDKRSFLLDLLNATGKDSLTLVFVETKKGADSLEDFLYHEGYACTSIHGDRSQRDREEALHQFRSGKSPILVATAVAARGLDISNVKHVINFDLPSDIEEYVHRIGRTGRVGNLGLATSFFNERNINITKDLLDLLVEAKQEVPSWLENMAYEHHYKGSSRGRSKSSRFSGGFGARDYRQSSGASSSSFSSSRASSSRSGGGGHGSSRGFGGGGYGGFYNSDGYGGNYNSQGVDWWGN
- expression_or_secretion ([1]; glycan lost, control: siRNA against firefly luciferase): decreases

B2: DDX3X: SIR FLAG-DDX3X Ser584Ala (protein)
parent chain: B1 parent chain
- expression_or_secretion [2]: decreases

B3: DDX3X: Ser584Ala (protein)
parent chain: B1 parent chain
- expression_or_secretion, percent_of_wt [3]: decreases
- degradation_or_half_life, other: proteasome-dependent loss of protein [4]: decreases
- degradation_or_half_life, other: turnover rate [5]: decreases

B4: DDX3X: FLAG-OGT WT over-expression (protein)
parent chain: B1 parent chain
- expression_or_secretion ([1]; glycan gained, control: FLAG-empty vector): increases
